In the test the target is HIV-1 P7L-S40A-Gag, full-length (HIV-1). Description: two-hybrid; Matchmaker GAL4 system, S. cerevisiae Y190, quantitative liquid beta-galactosidase assay; units normalized to P7L with Alix (panel B) or WT Gag with Alix (panel C).

Take “full-length Alix (from UniProt Q8WUM4 1-868) (natural protein)”: the fold increase of binding (beta-galactosidase units) against P7L-Gag with Alix turned out to be 7 fold.

Source of the values: publication PMC3907034.
